Data on one molecule can be found in patent US20220236279A1.

In this test the target is human atypical chemokine receptor 3 (ACKR3) (human), P25106. The test is described as follows: binding competition with CXCL12-AF647, flow cytometry. The note with it: chains peptide; remark: other sources report otherwise. A general note: A flow cytometer gives signals particle by particle.
human atypical chemokine receptor 3 (ACKR3) (human), P25106, sequence (P25106 whole entry): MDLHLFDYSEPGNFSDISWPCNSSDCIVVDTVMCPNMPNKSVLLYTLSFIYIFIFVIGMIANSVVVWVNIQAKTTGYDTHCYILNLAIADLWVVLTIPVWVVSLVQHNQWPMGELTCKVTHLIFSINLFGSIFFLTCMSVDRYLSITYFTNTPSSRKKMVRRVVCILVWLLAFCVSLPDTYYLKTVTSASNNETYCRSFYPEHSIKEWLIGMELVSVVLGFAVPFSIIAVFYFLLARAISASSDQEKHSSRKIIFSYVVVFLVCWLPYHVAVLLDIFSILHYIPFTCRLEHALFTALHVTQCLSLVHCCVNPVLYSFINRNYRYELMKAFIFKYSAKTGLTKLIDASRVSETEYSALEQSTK

Consider FGGFTGARKSARKLANQ [nociceptin, Q13519 130-146], for which the IC50 (in general, the concentration that gives 50% inhibition) is more than 10 µM.
